In article PMC5655542:

Target: H. polygyrus Alarmin Release Inhibitor (HpARI), recombinant mature 6-His and Myc-tagged protein (Heligmosomoides polygyrus)
Experiment: SPR; BIAcore T200; HpARI captured via its 6-His tag on a Ni2+-NTA chip to 400 RU; cytokine injected (mIL-33 6.2-167 nM, hIL-33 0.062-1.67 μM); 25°C; 10 mM NaH2PO4 pH 7.5, 150 mM NaCl, 50 μM EDTA, 0.05% surfactant P20; single kinetic titration, global 1:1 fit

Sequence of H. polygyrus Alarmin Release Inhibitor (HpARI), recombinant mature 6-His and Myc-tagged protein (Heligmosomoides polygyrus) (A0A3P7XL18 63-297): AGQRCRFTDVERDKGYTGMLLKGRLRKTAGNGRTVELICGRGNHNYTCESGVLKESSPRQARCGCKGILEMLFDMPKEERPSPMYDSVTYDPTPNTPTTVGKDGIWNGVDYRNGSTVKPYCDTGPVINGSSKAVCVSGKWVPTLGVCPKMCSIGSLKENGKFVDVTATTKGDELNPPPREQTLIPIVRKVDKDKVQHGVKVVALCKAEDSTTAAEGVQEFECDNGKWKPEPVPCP

B1: recombinant human IL-33, untreated (reduced, active form) (ligand)
chain: MKPKMKYSTNKISTAKWKNTASKALCFKLGKSQQKAKEVCPMYFMKLRSGLMIKKEACYFRRETTKRPSLKTGRKHKRHLVLAACQQQSTVECFAFGISGVQKYTRALHDSSITGISPITEYLASLSTYNDQSITFALEDESYEIYVEDLKKDEKKDKVLLSYYESQHPSNESGDGVDGKMLMVTLSPTKDFWLHANNKEHSVELHKCEKPLPDQAFFVLHNMHSNCVSFECKTDPGVFIGVKDNHLALIKVDSSENLCTENILFKLSET
B1 gave a Kd of 260 nM and a stoichiometry N of 1.
